Substitutions are numbered along the chain they refer to. In names and notes the source's numbering stands.
B1: MTSP-1 protease domain Q38H/I41S/D60bT/F60eS/Y60gW/D96K/F97G/ins97aV/T98P/F99L/M117K/C122S/G151H/Q175L/Q192D (enzyme)
chain: VVGGTDADEGEWPWQVSLHALGHGHSCGASLISPNWLVSAAHCYIDTRGSRWSDPTQWTAFLGLHDQSQRSAPGVQERRLKRIISHPFFNKGVPLDYDIALLELEKPAEYSSKVRPISLPDASHVFPAGKAIWVTGWGHTQYGGTHALILQKGEIRVINQTTCENLLPQLITPRMMCVGFLSGGVDSCDGDSGGPLSSVEADGRIFQAGVVSWGDGCAQRNKPGVYTRLPLFRDWIKENTGV
B2: MTSP-1 protease domain Q38H/I41S/D60bT/F60eS/Y60gW/D96K/F97G/ins97aV/T98P/F99L/C122S/T150S/G151H/Q175L/Q192D/Q209L (enzyme)
chain: B1 chain with K113M, T145S, Q207L
B3: MTSP-1 protease domain L36Q/Q38H/I41S/D60bT/F60eS/Y60gW/D96K/F97G/ins97aV/T98P/F99L/C122S/G151H/Q175L/Q192D (enzyme)
chain: B1 chain with L21Q, K113M
B4: MTSP-1 protease domain Q38H/I41A/D60bT/F60eK/Y60gF/F97T/ins97aE/T98G/F99L/C122S/H143R/G151N/Q175L/Q192V (enzyme)
chain: VVGGTDADEGEWPWQVSLHALGHGHACGASLISPNWLVSAAHCYIDTRGKRFSDPTQWTAFLGLHDQSQRSAPGVQERRLKRIISHPFFNDTEGLDYDIALLELEKPAEYSSMVRPISLPDASHVFPAGKAIWVTGWGRTQYGGTNALILQKGEIRVINQTTCENLLPQLITPRMMCVGFLSGGVDSCVGDSGGPLSSVEADGRIFQAGVVSWGDGCAQRNKPGVYTRLPLFRDWIKENTGV
B5: MTSP-1 protease domain Q38H/I41S/D60bT/F60eS/Y60gW/D96K/F97G/ins97aA/T98P/F99L/C122S/G151H/Q175L/Q192D (enzyme)
chain: B1 chain with V93A, K113M
B6: MTSP-1 Q38H/I41S/D60bT/F60eS/Y60gW/D96V/F97G/ins97aV/T98P/F99L/C122S/G151H/Q175L/Q192D (enzyme)
chain: B1 chain with K91V, K113M
B7: MTSP-1 Q38H/I41S/D60bT/F60eS/Y60gW/D96K/ins97aV/F97G/T98P/F99L/C122S/G151H/Q175L/Q192D (enzyme)
chain: B1 chain with K113M
B8: MTSP-1 protease domain I41G/F97A/F99L/C122S/G151H/Q175L/Q192G/D217L (enzyme)
chain: VVGGTDADEGEWPWQVSLHALGQGHGCGASLISPNWLVSAAHCYIDDRGFRYSDPTQWTAFLGLHDQSQRSAPGVQERRLKRIISHPFFNDATLDYDIALLELEKPAEYSSMVRPISLPDASHVFPAGKAIWVTGWGHTQYGGTHALILQKGEIRVINQTTCENLLPQLITPRMMCVGFLSGGVDSCGGDSGGPLSSVEADGRIFQAGVVSWGLGCAQRNKPGVYTRLPLFRDWIKENTGV
B9: MTSP-1 protease domain I41G/F97L/F99L/C122S/G151N/Q175A/Q192V/D217R (enzyme)
chain: B8 chain with A92L, H145N, L169A, G188V, L214R
B10: MTSP-1 protease domain I41S/F97E/F99L/C122S/G151N/Q175G/Q192R/D217A (enzyme)
chain: B8 chain with G26S, A92E, H145N, L169G, G188R, L214A
B11: MTSP-1 protease domain I41G/F97S/F99L/C122S/G151N/Q175I/Q192T/D217T (enzyme)
chain: B8 chain with A92S, H145N, L169I, G188T, L214T
B12: MTSP-1 protease domain I41G/F97T/F99M/C122S/G151D/Q175T/Q192T/D217V (enzyme)
chain: B8 chain with A92T, L94M, H145D, L169T, G188T, L214V
B13: MTSP-1 protease domain I41R/F97A/F99L/C122S/G151N/Q175R/Q192G/D217Q (enzyme)
chain: B8 chain with G26R, H145N, L169R, L214Q
B14: MTSP-1 protease domain I41G/F97S/F99L/C122S/G151T/Q175R/Q192A/D217Y (enzyme)
chain: B8 chain with A92S, H145T, L169R, G188A, L214Y
B15: MTSP-1 Q38H/I41A/D60bV/F60eR/Y60gW/D96I/F97N/T98G/F99L/C122S/G151N/Q175L/Q192D (enzyme)
chain: VVGGTDADEGEWPWQVSLHALGHGHACGASLISPNWLVSAAHCYIDVRGRRWSDPTQWTAFLGLHDQSQRSAPGVQERRLKRIISHPFFNINGLDYDIALLELEKPAEYSSMVRPISLPDASHVFPAGKAIWVTGWGHTQYGGTNALILQKGEIRVINQTTCENLLPQLITPRMMCVGFLSGGVDSCDGDSGGPLSSVEADGRIFQAGVVSWGDGCAQRNKPGVYTRLPLFRDWIKENTGV
B16: MTSP-1 protease domain Q38Y/I41S/D60bT/F60eR/Y60gW/D96M/F97N/T98G/C122S/G151N/Q175L/Q192D (enzyme)
chain: B15 chain with H23Y, A26S, V47T, I91M, L94F
B17: MTSP-1 protease domain Q38Y/I41S/D60bT/F60eR/Y60gW/D96M/F97N/T98G/F99L/C122S/G151N/Q192D (enzyme)
chain: B15 chain with H23Y, A26S, V47T, I91M, L169Q
B18: MTSP-1 protease domain Q38Y/I41S/D60bT/F60eR/Y60gW/D96M/F97N/T98G/F99L/C122S/G151N/Q175L (enzyme)
chain: B15 chain with H23Y, A26S, V47T, I91M, D188Q
B19: MTSP-1 protease domain Q38Y/I41S/D60bT/F60eR/Y60gW/D96M/T98G/F99L/C122S/G151N/Q175L/Q192D (enzyme)
chain: B15 chain with H23Y, A26S, V47T, I91M, N92F
B20: MTSP-1 protease domain Q38Y/I41S/D60bV/F60eR/Y60gF/D96M/F97N/T98G/F99L/C122S/G151N/Q175L/Q192D (enzyme)
chain: B15 chain with H23Y, A26S, W52F, I91M
B21: MTSP-1 protease domain Q38Y/I41S/D60bT/F60eR/D96M/F97N/T98G/F99L/C122S/G151N/Q175L/Q192D (enzyme)
chain: B15 chain with H23Y, A26S, V47T, W52Y, I91M
B22: MTSP-1 protease domain Q38Y/I41S/F60eR/Y60gW/D96M/F97N/T98G/F99L/C122S/G151N/Q175L/Q192D (enzyme)
chain: B15 chain with H23Y, A26S, V47D, I91M
B23: MTSP-1 protease domain I41S/D60bT/F60eR/Y60gW/D96M/F97N/T98G/F99L/C122S/G151N/Q175L/Q192D (enzyme)
chain: B15 chain with H23Q, A26S, V47T, I91M
B24: MTSP-1 protease domain Q38H/I41S/F60eT/Y60gW/D96M/F97N/T98G/F99L/C122S/G151N/Q175L/Q192D (enzyme)
chain: B15 chain with A26S, V47D, R50T, I91M
B25: MTSP-1 protease domain Q38Y/I41S/D60bT/F60eR/Y60gW/F97N/T98G/F99L/C122S/G151N/Q175L/Q192D (enzyme)
chain: B15 chain with H23Y, A26S, V47T, I91D
B26: MTSP-1 protease domain Q38Y/I41S/D60bT/F60eR/Y60gW/D96M/F97N/F99L/C122S/G151N/Q175L/Q192D (enzyme)
chain: B15 chain with H23Y, A26S, V47T, I91M, G93T
B27: MTSP-1 protease domain Q38Y/D60bT/F60eR/Y60gW/D96M/F97N/T98G/F99L/C122S/G151N/Q175L/Q192D (enzyme)
chain: B15 chain with H23Y, A26I, V47T, I91M
B28: MTSP-1 protease domain Q38Y/I41S/D60bT/Y60gW/D96M/F97N/T98G/F99L/C122S/G151N/Q175L/Q192D (enzyme)
chain: B15 chain with H23Y, A26S, V47T, R50F, I91M
B29: MTSP-1 protease domain Q38H/I41S/D60bT/F60eK/D96V/F97N/T98G/F99L/C122S/G151N/Q175L/Q192D (enzyme)
chain: B15 chain with A26S, V47T, R50K, W52Y, I91V
B30: MTSP-1 protease domain Q38E/I41S/D60bV/F60eK/Y60gW/D96M/F97N/T98G/F99L/C122S/G151N/Q175L/Q192D (enzyme)
chain: B15 chain with H23E, A26S, R50K, I91M
B31: MTSP-1 protease domain Q38Y/I41S/D60bT/F60eR/Y60gW/D96M/F97N/T98G/F99L/C122S/G151N/Q175L/Q192D (enzyme)
chain: B15 chain with H23Y, A26S, V47T, I91M

Biological target: plasma purified human complement protein C3 (human) (UniProt P01024)
Assay: cell-based or functional assay

Sequence of plasma purified human complement protein C3 (human) (P01024 23-667, chain 1 of 2): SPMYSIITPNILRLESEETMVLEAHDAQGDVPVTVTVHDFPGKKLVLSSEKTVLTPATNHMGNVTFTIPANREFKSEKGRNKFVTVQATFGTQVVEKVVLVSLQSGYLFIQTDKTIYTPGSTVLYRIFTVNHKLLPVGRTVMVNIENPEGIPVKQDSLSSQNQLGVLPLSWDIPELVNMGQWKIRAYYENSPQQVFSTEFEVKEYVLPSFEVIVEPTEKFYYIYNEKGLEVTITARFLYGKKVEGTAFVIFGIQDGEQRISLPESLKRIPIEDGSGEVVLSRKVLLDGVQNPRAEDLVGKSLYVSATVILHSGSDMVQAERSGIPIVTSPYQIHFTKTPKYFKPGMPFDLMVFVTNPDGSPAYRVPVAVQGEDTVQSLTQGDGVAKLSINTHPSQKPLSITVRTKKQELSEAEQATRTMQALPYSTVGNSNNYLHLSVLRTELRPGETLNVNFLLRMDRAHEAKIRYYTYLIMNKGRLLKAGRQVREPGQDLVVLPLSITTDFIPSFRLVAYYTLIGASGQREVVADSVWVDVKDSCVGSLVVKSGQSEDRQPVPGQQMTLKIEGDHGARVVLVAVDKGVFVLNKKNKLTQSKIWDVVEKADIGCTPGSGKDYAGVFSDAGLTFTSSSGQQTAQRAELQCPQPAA
Sequence of plasma purified human complement protein C3 (human) (P01024 672-1663, chain 2 of 2): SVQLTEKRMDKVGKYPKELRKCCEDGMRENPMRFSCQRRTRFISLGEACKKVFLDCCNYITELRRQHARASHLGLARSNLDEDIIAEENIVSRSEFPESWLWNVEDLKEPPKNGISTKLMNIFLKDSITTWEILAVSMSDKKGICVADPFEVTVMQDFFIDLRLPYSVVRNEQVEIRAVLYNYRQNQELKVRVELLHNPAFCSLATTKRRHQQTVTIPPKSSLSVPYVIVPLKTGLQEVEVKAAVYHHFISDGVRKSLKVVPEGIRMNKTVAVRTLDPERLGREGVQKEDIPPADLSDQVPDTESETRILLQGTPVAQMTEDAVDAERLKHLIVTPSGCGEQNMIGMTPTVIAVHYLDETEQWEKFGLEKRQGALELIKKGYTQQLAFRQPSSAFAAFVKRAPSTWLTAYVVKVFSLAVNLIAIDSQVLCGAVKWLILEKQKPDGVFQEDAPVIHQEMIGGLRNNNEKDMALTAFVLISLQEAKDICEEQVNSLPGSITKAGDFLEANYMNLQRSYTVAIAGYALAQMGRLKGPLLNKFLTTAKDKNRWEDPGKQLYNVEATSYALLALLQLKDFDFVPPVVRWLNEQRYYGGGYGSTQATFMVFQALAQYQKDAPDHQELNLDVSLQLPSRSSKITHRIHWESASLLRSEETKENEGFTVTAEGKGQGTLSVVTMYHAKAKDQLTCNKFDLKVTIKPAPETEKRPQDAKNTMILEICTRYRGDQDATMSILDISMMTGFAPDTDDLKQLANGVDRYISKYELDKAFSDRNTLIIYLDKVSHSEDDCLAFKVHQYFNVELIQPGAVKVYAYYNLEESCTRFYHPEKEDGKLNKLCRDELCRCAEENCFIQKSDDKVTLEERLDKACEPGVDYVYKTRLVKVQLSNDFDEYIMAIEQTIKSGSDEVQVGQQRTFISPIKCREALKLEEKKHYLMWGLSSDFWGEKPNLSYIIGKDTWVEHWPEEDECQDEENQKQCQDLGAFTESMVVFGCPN

| EC50 hC3 cleavage | EC50 of hC3 cleavage | Binder |
| --- | --- | --- |
| 4.75 nM | – | B1 |
| 2.88 nM | – | B2 |
| 5.49 nM | – | B3 |
| 24.5 nM | – | B4 |
| 1.43 nM | – | B5 |
| – | 2.85 nM | B6 |
| – | 6.86 nM | B7 |
| 47.8 nM | – | B8 |
| 34 nM | – | B9 |
| 74.3 nM | – | B10 |
| 84.4 nM | – | B11 |
| 45.6 nM | – | B12 |
| 401 nM | – | B13 |
| 52.8 nM | – | B14 |
| – | 2.87 nM | B15 |
| 33.6 nM | – | B16 |

| EC50 hC3 cleavage | EC50 of hC3 cleavage | Binder |
| --- | --- | --- |
| 56.7 nM | – | B17 |
| 1.08 nM | – | B18 |
| 3.27 nM | – | B19 |
| 5.25 nM | – | B20 |
| 16.4 nM | – | B21 |
| 10.4 nM | – | B22 |
| 9.47 nM | – | B23 |
| 35.7 nM | – | B24 |
| 15.9 nM | – | B25 |
| 10.8 nM | – | B26 |
| 47.7 nM | – | B27 |
| 3.08 nM | – | B28 |
| 13.3 nM | – | B29 |
| 19.1 nM | – | B30 |
| 5.12 nM | – | B31 |

Source: patent US20240018502A1
